This assay concerns the target cytochrome c 552 from Thermus thermophilus HB8 (Thermus thermophilus HB8) (UniProt P04164).

In paper PMC3561395 one finds forward rate constant kF of electron transfer with c 552, 4°C, ionic strength 12 mM and reverse rate constant kR of electron transfer with c 552, 4°C, ionic strength 12 mM data, which are given here for 2 substances.

Several values for one entry are separate records, joined by “and”; a condition that tells them apart may be missing. Equal values may be shown once.

Sequence of UniProt P04164 (P04164 whole entry): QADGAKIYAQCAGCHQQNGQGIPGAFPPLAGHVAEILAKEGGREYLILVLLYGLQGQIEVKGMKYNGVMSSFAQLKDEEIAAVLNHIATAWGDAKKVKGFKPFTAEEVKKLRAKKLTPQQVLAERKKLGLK

For the substance “recombinant cytochrome c 550 C-terminal domain (c 550[C]) (domain or fragment)”, the forward rate constant kF of electron transfer with c 552, 4°C, ionic strength 12 mM worked out at 7e+07 M⁻¹ s⁻¹; the reverse rate constant kR of electron transfer with c 552, 4°C, ionic strength 12 mM was 7e+06 M⁻¹ s⁻¹ and 3e+06 M⁻¹ s⁻¹.

The substance “recombinant cytochrome c 550 N-terminal domain (c 550[N]) (domain or fragment)” gave a forward rate constant kF of electron transfer with c 552, 4°C, ionic strength 12 mM of 1e+08 M⁻¹ s⁻¹.
